Experimental data reported in patent US20220226473A1, “Nucleic acid nanocarrier drug and preparation method thereof, pharmaceutical composition and application thereof” (BAI YAO ZHI DA (BEIJING) NANOBIO TECHNOLOGY CO., LTD., priority 2018, published 2022).
{Biotin} = biotin (Bio) of the a-strand; {Bio} = biotin of the strand

Tests used:
[1] = TM value detection by solubility curve method (SYBR Green I); type: physicochemical; settings: DNA nanoparticles
Experimental: A solubility curve method is used to detect TM values of the 7 groups of the extension fragment deformation+core short-sequence RNA nanoparticles, and the samples are consistent with the potential samples.
(1) After the sample is diluted with ultrapure water, 5 μg of the diluted sample is mixed with 2 μL of SYBR Green I dye (diluted by 1:200), a final volume is 20 μL, and the dilution concentration is as follows:
(2) It is incubated for 30 min in the dark at a room temperature; and
(3) On-machine detection is performed, a program is set to start at 20 DEG C., the temperature rises per second from 0.1 DEG C. to 95 DEG C., and reading is performed every 5 s.
Due to the particularity of the RNA samples, a temperature corresponding to ½ RFUmax in a range of 20 to 90 DEG C. is used as a sample Tm value in this test.
A solubility curve method is used to detect TM values of the 7 groups of the extension fragment deformation+core short-sequence DNA nanoparticles, and the samples are consistent with the potential samples.
(1) After the sample is diluted with ultrapure water, 5 μg of the diluted sample is mixed with 2 μL of SYBR Green I dye (diluted by 1:200). a final volume is 20 μL, and the dilution concentration is as follows: […]

[2] = tested on: HepG2 cells; assay: Cell binding of DNA nanoparticles and carrier drugs by FACS; type: cell-based; settings: incubated at 37 DEG C. for 2 h, flow cytometry
Experimental: 1. A cell state is adjusted to a logarithmic growth phase, the medium is changed into a medium without biotin and folic acid, and it is incubated overnight in an incubator at 37 DEG C.
2. After incubation, cell suspension is trypsinized and collected, and centrifuged at 1000 rpm for 5 min, after the concentration is adjusted, a 2×10^6-5×10^6 cell/EP tube is taken and washed twice with 1 mL/tube of 1% BSA-PBS, and cells at the bottom of the tube is observed to prevent them from being absorbed.
3. A substance to be tested is dissolved, and the substance to be tested is diluted to a use concentration.
4. Cell supernatant is absorbed, 100 μL of a corresponding sample is added to each tube in order, light is avoided, and it is incubated at 37 DEG C. for 2 h.
5. It is washed twice with 1% BSA-PBS; and centrifuged at 1000 rpm for 5 min.
6. Finally, it is precipitated with 300 μL of PBS cell resuspension, and flow Cytometric on-machine detection (the blank carrier used in the present embodiment is labeled by Quasar670, and the doxorubicin in the carrier drug has its own fluorescence, so the detection may be performed through FL4-APC and FL2-PE respectively) is performed.

[3] = Particle size measurement (DLS hydrodynamic size); type: physicochemical; settings: DLS hydrodynamic size
Source text: 1. Preparing a potential sample (conventional-sequence DNA self-assembly product D-7) and putting into a sample pool, opening a sample pool cover of an instrument, and placing the instrument;
2. opening software, and clicking a menu, so a manual measurement parameter setting dialog box appears;
3. setting a software detection parameter; and then
4. clicking Ok to complete the settings, when a measurement dialog box appears, clicking Start to start, a DLS measurement value result of a hydrodynamic size of the self-assembly product D-7 is shown below in Table 40: […]

[4] = tested on: HepG2 cells; assay: CCK8 toxicity of DNA nanoparticles and carrier drugs; type: cell-based; settings: HepG2, CCK8, 72 hours
Experimental: A CCK8 method is used to detect the toxicity of DNA nanoparticles and carrier drugs to HepG2.
2. A sample to be tested is diluted according to the following table and added: the original culture medium is removed and 100 μL of a culture medium of the sample to be tested with the different concentration is added, and there are 3 replicate wells in each group.
In the present embodiment, the loaded drug and the blank carrier are firstly prepared into 100 μM of stock solution using the PBS, and then diluted with the complete culture medium (biotin-free DMEM). The original drug doxorubicin is firstly prepared into 100 NM of stock solution by using the DMSO, and then diluted with the complete culture medium (biotin-free DMEM). The DMSO is directly diluted with the complete medium (biotin-free DMEM).
3. After the sample to be tested is added, the 96-well plate is placed in an incubator under 37 DEG C. and 5% CO2 and incubated for 72 hours.
4. A kit is taken out and melted at a room temperature, 10 μL of CCK-8 solution is added to each wall, or the CCK8 solution is nixed with the culture medium at a ratio of 1:9, and then added to the well in an amount of 100 μL/well.
5. It is continuously incubated in the cell incubator for 4 hours, and a length of time depends on experimental conditions such as a cell type and a el density.
6. A microplate reader is used to measure an absorbance at 450 nm.
7. Calculation: cell viability (%)=(OD experimental group−OD blank group)[…]/(OD control group−OD blank group), IC50 is calculated by GraphPad Prism 5.0.

[5] = Electric potential (zeta potential) measurement of self-assembly products; type: physicochemical; settings: result over 3 detections, at 25 DEG C.
Experimental: Measurement method: preparing a potential sample (the self-assembly product is dissolved in ultrapure water) and putting into a sample pool, opening a sample pool cover of an instrument, and placing the instrument;
opening software, clicking a menu MeasUre€ManUal, so a manual measurement parameter setting dialog box appears;
setting a software detection parameter;
and then clicking Ok to complete the settings, after a measurement dialog box appears, clicking start to start.
and then clicking Ok to complete the settings, after a measurement dialog box appears, clicking Start to start.
Measurement method: preparing a potential sample (the self-assembly product is dissolved in ultrapure water) and putting into a sample pool, opening a sample pool cover of an instrument, and placing the instrument:
Measurement result potential detection results of the 7 groups of the extension fragment deformation+core short-sequence RNA nanoparticles at 25 DEG C. are as follows:
setting a software detection parameter; and then
clicking Ok to complete the settings, after a measurement dialog box appears, clicking Start to start.
Measurement result potential detection results of the 7 groups of the extension fragment deformation+core short-sequence DNA nanoparticles at 25 DEG C. are as follows: […]

[6] = Drug loading rate of nucleic acid nanoparticles (chemical loading, absorbance standard curve); type: physicochemical; set-up: unit not given here; settings: for doxorubicin loading rate: chemical loading method of Embodiment 5; for daunorubicin loading rate: absorbance at 492 nm
Source text: According to the chemical loading method (unless otherwise specified, the method is the same as that of Embodiment 5) of Embodiment 5, the RNA nanoparticles formed by the self-assembly of the previous R-15, R-16, R-17, R-18, R-19, R-20 and R-21 in Embodiment 9, and the DNA nanoparticles formed by the self-assembly of the D-8, D-9, D-10, D-11, D-12, D-13 and D-14 in Embodiment 10 are respectively used as doxorubicin loading carriers, doxorubicin loading rates measured are respectively as follows:
According to the chemical loading method (unless otherwise specified, the method is the same as that of Embodiment 5) of Embodiment 5, the DNA nanoparticles formed by the self-assembly of the previous D-10 and D-14 in Embodiment 10 are used as a daunorubicin loading carrier.
According to a chemical loading method of Embodiment 5 (unless otherwise specified, the method is the same as that of Embodiment 5, the same molar number of the epirubicin is used as a loading amount), nucleic acid nanoparticles (a molecular weight is 29550, it is similar to the RNA nanoparticles in Embodiment 1, and a difference is that a fluorescent label on a c-strand is Cy5) are used as a carrier, and respectively loaded with: epirubicin, methotrexate, pirarubicin, daunorubicin, […], 10-hydroxycamptothecin, aspirin and gemcitabine.
Herein, when a standard curve is drawn, the absorbance of the above drugs on the microplate reader is measured respectively. The absorbance of the epirubicin, methotrexate, pirarubicin, daunorubicin, […], 10-hydroxycamptothecin, aspirin and gemcitabine is respectively detected at the following wavelengths: 492 nm, 303 nm, 492 nm, 492 nm, 265 nm, 384 nm, 225 nm and 268 nm. The standard curves obtained correspondingly are respectively shown in FIG. 48a, FIG. 49, FIG. 50sa, FIG. 51, FIG. 52, FIG. 53, FIG. 54a and FIG. 55. […]

B1: D-9: extension fragment deformation+core short-sequence DNA nanoparticle, SEQ ID NO: 144-146, 3′ biotin (nucleic acid)
chain 1: GCGGCGAGCGGCGAGCAGCGTTCGGGCCGGAGGCCGG
chain 2: CCGGCCTCCGGCCCGTTCGCCGCCAGCCGCC
chain 3: GGCGGCAGGCGGCCATAGCGCTCGCCGCTCGCCGC
modifications: chain 1: DNA, 3' {Bio}, backbone and methylation of C not given here; chain 2: DNA, backbone and methylation of C not given here; chain 3: DNA, backbone and methylation of C not given here; three-strand DNA nanoparticle carrier
- TM value (° C.) [1]: 52.5 °C
- Positive rate ([2]; HepG2, 1 μM): 96.7%
- Positive rate ([2]; HepG2, 2 μM): 98.1%
- Mean particle size (nm) [3]: 7.920 nm
- IC50 [4]: > 1 µM
- Potential ZP, Experiment result [5]: −35.07 mV
- doxorubicin loading rate [6]: 27.9

B2: D-11: extension fragment deformation+core short-sequence DNA nanoparticle, SEQ ID NO: 150-152, 3′ biotin (nucleic acid)
chain 1: GCGGCGAGCGGCGAGCAGCGTTCGGGCCGGAGGCCGG
chain 2: CCGGCCTCCGGCCCGTTCGGCGCCAGCCGCC
chain 3: GGCGGCAGGCGCCCATAGCGCTCGCCGCTCGCCGC
modifications: chain 1: DNA, 3' {Bio}, backbone not given here; chain 2: DNA, backbone not given here; chain 3: DNA, backbone not given here; three-strand DNA nanoparticle carrier
- TM value (° C.) [1]: 48.7 °C
- Positive rate ([2]; HepG2, 1 μM): 97.7%
- Positive rate ([2]; HepG2, 2 μM): 97.8%
- Mean particle size (nm) [3]: 7.472 nm
- IC50 [4]: > 1 µM
- Potential ZP, Experiment result [5]: −27.43 mV
- doxorubicin loading rate [6]: 26.8

B3: D-13: extension fragment deformation+core short-sequence DNA nanoparticle, SEQ ID NO: 156-158, 3′ biotin (nucleic acid)
chain 1: GCGGCGAGCGGCGACGAGCGTTGCGGCCGGAGGCCGG
chain 2: CCGGCCTCCGGCCGCTTCGCCGCCAGCCGCC
chain 3: GGCGGCAGGCGGCCATAGCCGTCGCCGCTCGCCGC
modifications: chain 1: DNA, 3' {Bio}, backbone not given here; chain 2: DNA, backbone not given here; chain 3: DNA, backbone not given here; three-strand DNA nanoparticle carrier
- TM value (° C.) [1]: 51.0 °C
- Positive rate ([2]; HepG2, 1 μM): 97.6%
- Positive rate ([2]; HepG2, 2 μM): 98.2%
- Mean particle size (nm) [3]: 7.012 nm
- IC50 [4]: > 1 µM
- Potential ZP, Experiment result [5]: −27.00 mV
- doxorubicin loading rate [6]: 31.8

B4: D-10: extension fragment deformation+core short-sequence DNA nanoparticle, SEQ ID NO: 147-149, 3′ biotin (nucleic acid)
chain 1: GCGGCGAGCGGCGAGGAGCGTTGGGGCCGGAGGCCGG
chain 2: CCGGCCTCCGGCCCCTTCGCCGCCAGCCGCC
chain 3: GGCGGCAGGCGGCCATAGCCCTCGCCGCTCGCCGC
modifications: chain 1: DNA, 3' {Bio}, backbone not given here; chain 2: DNA, backbone not given here; chain 3: DNA, backbone not given here; three-strand DNA nanoparticle carrier
- TM value (° C.) [1]: 54.5~55.0 °C
- Positive rate ([2]; HepG2, 1 μM): 97.9%
- Positive rate ([2]; HepG2, 2 μM): 98.3%
- Mean particle size (nm) [3]: 7.220 nm
- IC50 [4]: > 1 µM
- Potential ZP, Experiment result [5]: −25.77 mV
- daunorubicin loading rate [6]: 24.0
- doxorubicin loading rate [6]: 18.9

B5: D-14: extension fragment deformation+core short-sequence DNA nanoparticle, SEQ ID NO: 159-161, 3′ biotin (nucleic acid)
chain 1: GCGGCGAGCGGCGACGAGCGTTGCGGCCGGAGGCCGG
chain 2: CCGGCCTCCGGCCGCTTCGGCGCCAGCCGCC
chain 3: GGCGGCAGGCGCCCATAGCCGTCGCCGCTCGCCGC
modifications: chain 1: DNA, 3' {Biotin}, backbone not given here; chain 2: DNA, backbone not given here; chain 3: DNA, backbone not given here; three-strand DNA nanoparticle carrier
- TM value (° C.) [1]: 49.2 °C
- Positive rate ([2]; HepG2, 1 μM): 97.4%
- Positive rate ([2]; HepG2, 2 μM): 98.3%
- Mean particle size (nm) [3]: 6.896 nm
- IC50 [4]: > 1 µM
- Potential ZP, Experiment result [5]: −28.73 mV
- daunorubicin loading rate [6]: 25.1
- doxorubicin loading rate [6]: 32

B6: D-12: extension fragment deformation+core short-sequence DNA nanoparticle, SEQ ID NO: 153-155, 3′ biotin (nucleic acid)
chain 1: GCGGCGAGCGGCGAGCAGCGTTCGGGCCGGAGGCCGG
chain 2: CCGGCCTCCGGCCCGTTCGGCCCCAGCCGCC
chain 3: GGCGGCAGGGGCCCATAGCGCTCGCCGCTCGCCGC
modifications: chain 1: DNA, 3' {Biotin}, backbone not given here; chain 2: DNA, backbone not given here; chain 3: DNA, backbone not given here; three-strand DNA nanoparticle carrier
- TM value (° C.) [1]: 51.5 °C
- Positive rate ([2]; HepG2, 1 μM): 96.9%
- Positive rate ([2]; HepG2, 2 μM): 97.1%
- Mean particle size (nm) [3]: 6.968 nm
- IC50 [4]: > 1 µM
- Potential ZP, Experiment result [5]: −32.50 mV
- doxorubicin loading rate [6]: 27.6
